B1: Dystrobrevin alpha, residues 235 to 294; numbered along this chain, Q9Y4J8 (parent)
chain: ENVFHPVECSYCHSESMMGFRYRCQQCHNYQLCQDCFWRGHAGGSHSNQHQMKEYTSWKS

Variants of: B1
Test: abundance fitness (aPCA) (normalised: wild type 0, dead -1); higher = more abundant; growth selection in yeast, the domain comes from the species named
Conditions: Homo sapiens

Abundance fitness of substitutions, site by site:
R39: F -0.34, D -0.083, A 0.142, Q 0.116, W -0.282, H 0.092, L -0.08, E 0.074, Y -0.099, C -0.071, P -0.495, I -0.308, V -0.202, M -0.072, N 0.086, G 0.011, T -0.107, K 0.228, S 0.062
Y30: K -0.519, S -0.478, R -0.301, L -0.36, D -0.508, W -0.458, G -0.553, M -0.288, Q -0.559, V -0.206, A -0.398, E -0.378, C -0.554, T -0.426, F -0.183, P -0.638, H -0.53
Q25: D -0.117, S -0.159, Y -0.327, R -0.158, T -0.004, M 0.061, G -0.202, V 0.019, K -0.003, A -0.213, F -0.325, H -0.193, N -0.128, C -0.102, I -0.208, P -0.426, E 0.078, L -0.026, W -0.662
L32: C 0.038, T 0.053, D -0.356, V -0.102, M -0.793, E -0.395, Y -0.38, R -0.647, G -0.511, Q -0.455, K -0.538, A -0.656, S -0.308, W -0.751
N29: G -0.058, S -0.063, V -0.281, L -0.125, E -0.152, D 0.052, C 0.186, P -0.388, Y -0.204, T -0.213, K -0.156, H -0.075, F 0.007, M -0.044, W -0.183, R -0.171, A -0.028, Q 0.1
F37: M 0.081, P -0.62, Q -0.003, L -0.232, E -0.101, C -0.473, W -0.051, I -0.087, V -0.045, N -0.401, H -0.092, R -0.098, T -0.439, G -0.348, Y -0.052, A -0.043, S -0.278, D -0.488
Q26: P -0.545, H -0.315, C -0.301, L -0.287, M -0.355, E -0.058, T 0.012, V 0.273, N 0.022, F -0.283, R -0.232, S -0.024, W -0.498, K -0.288, D 0.341, A 0.006, I 0.011, G -0.277
R23: I -0.05, V 0.074, P -0.509, T -0.008, E 0.03, Q 0.034, W -0.276, Y -0.138, S 0.066, H 0.201, D -0.022, L 0.002, G -0.158, F -0.034, K 0.147, M 0.006, C 0.176, A -0.049
H28: S 0.027, D 0.209, G -0.1, M -0.008, E 0.063, T 0.1, V 0.06, R -0.002, A 0.145, K 0.122, L 0.002, I 0.033, W -0.16, F -0.112, P 0.066, N 0.152, C -0.093
G40: A -0.391, N -0.138, L -0.384, F -0.193, D -0.166, R -0.206, E -0.284, K -0.045, M -0.404, C -0.227, Q -0.281, I -0.27
C24: V -0.838, P -1.08, I -0.822, L -0.911, Q -0.561, W -1.07, S -0.851, Y -0.935, N -0.691, G -0.736, K -0.928, H -0.887, F -1.04, D -0.441, R -0.97, T -0.752, M -0.731, E -0.615
C27: H -0.814, A -0.727, K -0.745, V -0.85, E -0.717, T -0.877, M -0.814, Q -0.943, R -0.876, F -0.434, P -0.578, W -0.838, L -0.998, D -0.667, N -0.841
C33: W -0.811, D -0.894, V -0.836, A -0.495, Y -0.954, I -0.884, E -0.541, T -0.944, K -0.983, N -0.592, L -0.874, R -0.675, M -0.823, H -0.659, Q -0.609, F -0.625, G -0.78, S -0.658
Q31: T 0.083, A -0.085, F 0.119, E 0.112, S -0.007, K -0.318, N -0.202, R -0.318, Y -0.034, C -0.151, D -0.012, P -0.536, V 0.098, L -0.153, I -0.053, W 0.11
D35: N 0.069, Y 0.011, S -0.033, R -0.089, C -0.113, I -0.113, A -0.093, Q -0.204, M -0.022, G -0.235, F 0.197, H 0.001, W -0.33, P 0.025, V -0.084
Y22: R -0.241, E -0.675, N -0.364, K -0.263, C -0.409, W -0.086, I -0.337, T -0.437, L -0.3, D -0.814, S -0.405, V -0.051, M -0.142, H -0.053, A -0.13, Q -0.754, P -0.904, G -0.658
R21: D -0.436, L 0.058, T 0.088, I -0.128, G -0.15, S 0.138, W -0.02, H 0.165, K 0.047, V -0.207, E -0.07, F -0.188, M 0.063, Y -0.394
C36: F -0.994, I -0.733, W -0.94, V -0.873, K -0.192, L -0.817, S -0.992, P -0.565, R -0.695, D -0.624, Q -0.723, M -0.723, A -0.881, G -0.596, Y -0.734
Q34: P -0.163, T -0.19, G -0.027, F -0.394, R -0.047, W -0.606, S -0.087, M -0.302, V -0.169, K 0.127, A -0.053, Y -0.147, D -0.267, H -0.156, L -0.423, E 0.044, N -0.146
W38: I 0.318, C 0.215, L 0.167, P -0.146, N 0.308, T 0.349, K 0.191, Y 0.214, V 0.13, M 0.37, A 0.305, Q 0.228, F 0.099, D 0.288, H 0.014, E 0.287, R 0.364, S 0.343

Reference: the Human Domainome abundance scans (Beltran et al. 2025)
